{
  "source": "patent US20220265759",
  "proteins": {"B1": {"name": "human endothelial nitric oxide synthase (eNOS) (protein)", "chain": "GNLKSVAQEPGPPCGLGLGLGLGLCGKQGPATPAPEPSRAPASLLPPAPEHSPPSSPLTQPPEGPKFPRVKNWEVGSITYDTLSAQAQQDGPCTPRRCLGSLVFPRKLQGRPSPGPPAPEQLLSQARDFINQYYSSIKRSGSQAHEQRLQEVEAEVAATGTYQLRESELVFGAKQAWRNAPRCVGRIQWGKLQVFDARDCRSAQEMFTYICNHIKYATNRGNLRSAITVFPQRCPGRGDFRIWNSQLVRYAGYRQQDGSVRGDPANVEITELCIQHGWTPGNGRFDVLPLLLQAPDDPPELFLLPPELVLEVPLEHPTLEWFAALGLRWYALPAVSNMLLEIGGLEFPAAPFSGWYMSTEIGTRNLCDPHRYNILEDVAVCMDLDTRTTSSLWKDKAAVEINVAVLHSYQLAKVTIVDHHAATASFMKHLENEQKARGGCPADWAWIVPPISGSLTPVFHQEMVNYFLSPAFRYQPDPWKGSAAKGTGITRKKTFKEVANAVKISASLMGTVMAKRVKATILYGSETGRAQSYAQQLGRLFRKAFDPRVLCMDEYDVVSLEHETLVLVVTSTFGNGDPPENGESFAAALMEMSGPYNSSPRPEQHKSYKIRFNSISCSDPLVSSWRRKRKESSNTDSAGALGTLRFCVFGLGSRAYPHFCAFARAVDTRLEELGGERLLQLGQGDELCGQEEAFRGWAQAAFQAACETFCVGEDAKAAARDIFSPKRSWKRQRYRLSAQAEGLQLLPGLIHVHRRKMFQATIRSVENLQSSKSTRATILVRLDTGGQEGLQYQPGDHIGVCPPNRPGLVEALLSRVEDPPAPTEPVAVEQLEKGSPGGPPPGWVRDPRLPPCTLRQALTFFLDITSPPSPQLLRLLSTLAEEPREQQELEALSQDPRRYEEWKWFRCPTLLEVLEQFPSVALPAPLLLTQLPLLQPRYYSVSSAPSTHPGEIHLTVAVLAYRTQDGLGPLHYGVCSTWLSQLKPGDPVPCFIRGAPSFRLPPDPSLPCILVGPGTGIAPFRGFWQERLHDIESKGLQPTPMTLVFGCRCSQLDHLYRDEVQNAQQRGVFGRVLTAFSREPDNPKTYVQDILRTELAAEVHRVLCLERGHMFVCGDVTMATNVLQTVQRILATEGDMELDEAGDVIGVLRDQQRYHEDIFGLTLRTQEVTSRIRTQSFSLQERQLRGAVPWAFDPPGSDTNSP"}},
  "biological_target": "T1, human chemokine receptor CCR10, P46092",
  "T1 chain": "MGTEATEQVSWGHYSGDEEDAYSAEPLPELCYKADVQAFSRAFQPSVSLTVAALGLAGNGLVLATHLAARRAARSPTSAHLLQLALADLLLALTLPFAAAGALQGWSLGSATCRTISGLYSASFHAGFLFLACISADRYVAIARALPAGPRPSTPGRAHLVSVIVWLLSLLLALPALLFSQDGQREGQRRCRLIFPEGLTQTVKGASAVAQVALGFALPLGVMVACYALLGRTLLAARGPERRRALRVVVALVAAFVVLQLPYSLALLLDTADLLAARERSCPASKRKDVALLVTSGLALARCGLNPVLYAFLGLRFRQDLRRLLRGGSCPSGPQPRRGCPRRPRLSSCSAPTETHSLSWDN",
  "data": [
    {"protein": "B1", "values": [
      {"measurement": "eNOS phosphorylation (Ser1177) in presence of Myr-CBD7", "result": "eNOS phosphorylation (Ser1177) was significantly enhanced in presence of Myr-CBD7"},
      {"measurement": "phosphorylation of eNOS after CCR10 siRNA knockdown (western blot, A23187 stimulation)", "result": "phosphorylation of eNOS was significantly increased compared to control siRNA, even at 0 minutes"}
    ]}
  ]
}
